One assay has as its target HLA-C*04:01. Put plainly: IEDB peptide-MHC binding, purified MHC/competitive/fluorescence; filed as Kd, often an IC50 or EC50 that approximates it; ≥ and ≤ were set here for values at or beyond the usual limits of such assays. As to conditions: source organism: Mycobacterium tuberculosis variant bovis BCG str. Pasteur 1173P2.
The target of the next assay is HLA-B*27:20. The assay is described as above.
Assay [1] concerns the target HLA-A*02:01. Described as above. Conditions: source organism: Mycobacterium tuberculosis variant bovis BCG str. Pasteur 1173P2.
The target of a further assay is HLA-B*15:42. The description is as above.
The next assay concerns the target HLA-B*45:06. The assay is described as above.
The next assay addresses HLA-A*02:11. The assay is described as above. Conditions: source organism: Mycobacterium tuberculosis variant bovis BCG str. Pasteur 1173P2.
The target of another assay is HLA-B*83:01. The description is as above.
The next assay deals with HLA-A*01:01. Put plainly: IEDB peptide-MHC binding, purified MHC/direct/fluorescence; filed as Kd, often an IC50 or EC50 that approximates it; ≥ and ≤ were set here for values at or beyond the usual limits of such assays.
The target in another assay is HLA-B*38:01. The assay is described as above. As to conditions: source organism: Yersinia pestis CA88-4125.
A further assay addresses HLA-B*51:01. The description is as above. As to conditions: source organism: Yersinia pestis.
The target in another assay is HLA-B*08:01. The description is as above.
Another assay concerns the target HLA-B*15:17. Described as above. As to conditions: source organism: Yersinia pestis.
The target in assay [2] is HLA-B*07:02. The assay is described as above.
The target of the next assay is HLA-B*27:05. Described as above.
A further assay addresses HLA-B*18:01. The description is as above. Conditions: source organism: Yersinia pestis.
A further assay has as its target HLA-B*15:01. Described as above.
A further assay deals with HLA-A*69:01. The description is as above.
The next assay addresses HLA-A*11:01. The assay is described as above.
Another assay deals with HLA-B*57:01. The assay is described as above. As to conditions: source organism: Yersinia pestis.
A further assay deals with HLA-A*03:01. Described as above.
The target of assay [3] is HLA-A*02:01. Described as above.
Assay [4] concerns the target HLA-B*46:01. Described as above. Conditions: source organism: Yersinia pestis.
A further assay has as its target HLA-B*39:01. The assay is described as above. As to conditions: source organism: Yersinia pestis CA88-4125.
For a further assay, the target named is HLA-B*58:01. The assay is described as above.
A further assay concerns the target HLA-B*48:01. The description is as above.
The target in a further assay is HLA-B*15:09. Described as above. Conditions: source organism: Yersinia pestis CA88-4125.
Another assay addresses HLA-B*40:01. The assay is described as above.
In assay [5] the target is HLA-A*31:01. The experiment in a line: IEDB peptide-MHC binding, purified MHC/competitive/fluorescence; filed as Kd, often an IC50 or EC50 that approximates it; ≥ and ≤ were set here for values at or beyond the usual limits of such assays. As to conditions: source organism: Yersinia pestis KIM10+.
Assay [6] deals with HLA-B*35:01. The experiment in a line: IEDB peptide-MHC binding, purified MHC/competitive/radioactivity; filed as Kd, often an IC50 or EC50 that approximates it; ≥ and ≤ were set here for values at or beyond the usual limits of such assays. As to conditions: source organism: Dengue virus 4 Philippines/H241/1956.
The next assay concerns the target HLA-B*53:01. The description is as above. As to conditions: source organism: Dengue virus 4 Philippines/H241/1956.
Assay [7] deals with HLA-B*07:02. Put plainly: IEDB peptide-MHC binding, purified MHC/competitive/radioactivity; ≥ and ≤ were set here for values at or beyond the usual limits of such assays. Conditions: source organism: dengue virus type 4.
Another assay deals with HLA-C*07:02. The experiment in a line: IEDB peptide-MHC binding, purified MHC/direct/fluorescence; filed as Kd, often an IC50 or EC50 that approximates it; ≥ and ≤ were set here for values at or beyond the usual limits of such assays. As to conditions: source organism: Yellow fever virus.
For assay [8], the target named is HLA-C*06:02. The experiment in a line: IEDB peptide-MHC binding, purified MHC/competitive/fluorescence; filed as Kd, often an IC50 or EC50 that approximates it; ≥ and ≤ were set here for values at or beyond the usual limits of such assays. Conditions: source organism: Yellow fever virus.
A further assay concerns the target HLA-B*40:02. Put plainly: IEDB peptide-MHC binding, cellular MHC/competitive/fluorescence; ≥ and ≤ were set here for values at or beyond the usual limits of such assays. Conditions: source organism: Homo sapiens.
The target of assay [9] is HLA-B*35:01. The experiment in a line: IEDB peptide-MHC binding, purified MHC/direct/fluorescence; filed as Kd, often an IC50 or EC50 that approximates it; ≥ and ≤ were set here for values at or beyond the usual limits of such assays. As to conditions: source organism: Vibrio cholerae.
Assay [10] concerns the target HLA-A*31:01. Described as above. Conditions: source organism: Vibrio cholerae.
For the next assay, the target named is HLA-A*26:01. The assay is described as above. As to conditions: source organism: Vibrio cholerae.
Another assay has as its target HLA-B*44:02. The description is as above. Conditions: source organism: Vibrio cholerae.
For a further assay, the target named is HLA-C*12:03. Described as above. Conditions: source organism: Vibrio cholerae 2740-80.
The target of assay [11] is HLA-C*06:02. The assay is described as above. Conditions: source organism: Vibrio cholerae 2740-80.
Assay [12] deals with HLA-B*46:01. Put plainly: IEDB peptide-MHC binding, purified MHC/competitive/fluorescence; filed as Kd, often an IC50 or EC50 that approximates it; ≥ and ≤ were set here for values at or beyond the usual limits of such assays. As to conditions: source organism: Vibrio cholerae 2740-80.
Another assay addresses HLA-A*02:50. Described as above. As to conditions: source organism: Vibrio cholerae 2740-80.
The target in assay [13] is HLA-B*35:01. Put plainly: IEDB peptide-MHC binding, purified MHC/competitive/radioactivity; ≥ and ≤ were set here for values at or beyond the usual limits of such assays. Conditions: source organism: Human papillomavirus 16.
For another assay, the target named is HLA-B*73:01. The experiment in a line: IEDB peptide-MHC binding, purified MHC/competitive/fluorescence; filed as Kd, often an IC50 or EC50 that approximates it; ≥ and ≤ were set here for values at or beyond the usual limits of such assays. As to conditions: source organism: Burkholderia mallei SAVP1.
[14] abbreviates: source organism: Mycobacterium tuberculosis variant bovis BCG str. Pasteur 1173P2.
The mark [15] stands for this setting: source organism: Yersinia pestis.
Setting [16] is: source organism: Yersinia pestis CA88-4125.
Where [17] appears, read: source organism: Yellow fever virus.
The mark [18] stands for this setting: source organism: Vibrio cholerae.

AEFGPWQTV: the equilibrium dissociation constant (Kd) with HLA-C*04:01 was ≥ 5 µM; with HLA-B*27:20 (setting [14]) it was 185 nM; with HLA-A*02:01 [1], 1640 nM; in the assay with HLA-B*15:42 (setting [14]), ≥ 5 µM; with HLA-B*45:06 (setting [14]) it was ≥ 5 µM; with HLA-A*02:11, 125 nM. Further, in the assay with HLA-B*83:01 (setting [14]), the equilibrium dissociation constant (Kd) is ≥ 5 µM.
Regarding RPQLWRYRW, the Kd in the assay with HLA-A*01:01 (setting [15]) is ≥ 20 µM; in the assay with HLA-B*38:01, ≥ 20 µM; with HLA-B*51:01, ≥ 20 µM; with HLA-B*08:01 (setting [16]), ≥ 20 µM; in the assay with HLA-B*15:17, ≥ 20 µM; with HLA-B*07:02 [2] (setting [15]), 0.97 µM. Besides, the equilibrium dissociation constant (Kd) with HLA-B*27:05 (setting [15]) is ≥ 20 µM; with HLA-B*18:01 it was ≥ 20 µM; with HLA-B*15:01 (setting [15]), ≥ 20000 nM; with HLA-A*69:01 (setting [15]) it was ≥ 20000 nM; with HLA-A*11:01 (setting [15]) it was ≥ 20 µM; with HLA-B*57:01, 343 nM. Moreover, the Kd with HLA-A*03:01 (setting [15]) was ≥ 20000 nM; in the assay with HLA-A*02:01 [3] (setting [15]), ≥ 20000 nM; in the assay with HLA-B*46:01 [4], ≥ 20 µM; in the assay with HLA-B*39:01 it was 3.18 µM; in the assay with HLA-B*58:01 (setting [16]) it was 328 nM; in the assay with HLA-B*48:01 (setting [15]), ≥ 20000 nM. Besides, the Kd in the assay with HLA-B*15:09 was ≥ 20 µM; in the assay with HLA-B*40:01 (setting [15]), ≥ 20 µM; with HLA-A*31:01 [5], 1810 nM.
Take LPSIVREAL: the Kd with HLA-B*35:01 [6] turned out to be 82.8 nM; with HLA-B*53:01, 40.6 nM. Moreover, the IC50 with HLA-B*07:02 [7] came to 0.31 nM.
RRRLRTLVL: the dissociation constant Kd is 225 nM with HLA-C*07:02; 2930 nM with HLA-B*48:01 (source organism: Yellow fever virus 17D); 0.2 nM in the assay with HLA-B*27:20 (setting [17]); ≥ 5 µM with HLA-B*15:42 (setting [17]); ≥ 5 µM in the assay with HLA-B*45:06 (setting [17]); 50.5 nM in the assay with HLA-C*06:02 [8]. Moreover, the Kd with HLA-B*83:01 (setting [17]) was ≥ 5 µM.
SELSPGRSV showed an IC50 with HLA-B*40:02 of 1100 nM.
As for MMFDAMGAL, the Kd in the assay with HLA-A*01:01 (setting [18]) was 11.2 µM; with HLA-B*08:01 (setting [18]), 5.76 µM; with HLA-B*07:02 [2] (setting [18]), 5.75 µM; with HLA-B*35:01 [9], 18.4 nM; with HLA-B*27:05 (setting [18]), ≥ 20 µM; with HLA-A*31:01 [10] it was 921 nM. In addition, the Kd in the assay with HLA-B*15:01 (setting [18]) worked out at 37.2 nM; in the assay with HLA-A*69:01 (setting [18]), 33.1 nM; with HLA-A*11:01 (setting [18]), 9.31 µM; in the assay with HLA-A*26:01, 1230 nM; with HLA-A*03:01 (setting [18]), 1460 nM; with HLA-A*02:01 [3] (setting [18]), 328 nM. Further, the equilibrium dissociation constant (Kd) with HLA-B*58:01 (setting [18]) is ≥ 20000 nM; with HLA-B*44:02, ≥ 20 µM; with HLA-C*12:03, 46 nM; with HLA-C*06:02 [11] it was 1480 nM; in the assay with HLA-B*40:01 (setting [18]) it was ≥ 20 µM; with HLA-B*46:01 [12] it was 22.7 nM. The Kd with HLA-A*02:50 was found to be 0.2 nM.
Consider SAFRCFIVY, for which the IC50 with HLA-B*35:01 [13] was 1.4 nM.
RRFWVGYQQ gave an equilibrium dissociation constant (Kd) with HLA-B*73:01 of 893 nM.

One may read the Kd as a measure of binding affinity in units of concentration. As a reminder, the IC50 is the point on the concentration scale where inhibition reaches its midpoint.

The values above are taken from the Immune Epitope Database (IEDB).
